Measured values taken from doi:10.1101/2023.01.24.525215.

T1: WRKY53 (Arabidopsis thaliana, UniProt Q9SUP6 1-324)
T1 sequence: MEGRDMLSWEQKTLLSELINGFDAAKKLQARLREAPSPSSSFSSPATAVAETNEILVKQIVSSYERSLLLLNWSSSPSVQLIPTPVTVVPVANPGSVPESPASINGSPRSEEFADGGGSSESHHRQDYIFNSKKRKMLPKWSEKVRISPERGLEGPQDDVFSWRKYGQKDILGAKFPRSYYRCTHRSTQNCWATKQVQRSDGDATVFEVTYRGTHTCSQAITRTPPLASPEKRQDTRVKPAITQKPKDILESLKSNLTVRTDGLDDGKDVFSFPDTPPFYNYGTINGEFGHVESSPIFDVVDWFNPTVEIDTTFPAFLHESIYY

T2: TGA5 (Arabidopsis thaliana, UniProt Q39163 1-330)
T2 sequence: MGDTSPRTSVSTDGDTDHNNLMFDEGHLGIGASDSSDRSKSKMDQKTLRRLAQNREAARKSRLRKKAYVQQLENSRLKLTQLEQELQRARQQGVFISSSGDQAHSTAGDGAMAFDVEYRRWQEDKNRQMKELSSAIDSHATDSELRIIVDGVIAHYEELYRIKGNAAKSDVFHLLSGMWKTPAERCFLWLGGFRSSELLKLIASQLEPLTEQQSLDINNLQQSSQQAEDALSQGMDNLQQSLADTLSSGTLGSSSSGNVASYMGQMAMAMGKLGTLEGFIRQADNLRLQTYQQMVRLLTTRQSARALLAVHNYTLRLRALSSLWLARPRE

B1: PR1 w-box probe (dsDNA)
DNA 1: TTTATTTGAAAATTGACTGTAGATATAAAC
DNA 2: GTTTATATCTACAGTCAATTTTCAAATAAA
B2: PDF1.2 as-1 probe (dsDNA)
DNA 1: ATGTTGTATTTGTTCGACGATGACGAAGGT
DNA 2: ACCTTCGTCATCGTCGAACAAATACAACAT
B3: PDF1.2 w-box probe (dsDNA)
DNA 1: ATAATTATTCTTGACTGATGTATGCATATA
DNA 2: TATATGCATACATCAGTCAAGAATAATTAT

What was measured:
Assay in all cases: EMSA
CAM5 = CAM5 (Arabidopsis thaliana, UniProt Q682T9 1-149)
WRKY53 = biological target: T1, WRKY53
TGA5 = biological target: T2, TGA5

Row | Binder | binding result (CAM5) | binding result (WRKY53) | binding result (TGA5)
1 | B1 | no binding | binds | binds
2 | B2 | – | no binding | binds
3 | B3 | no binding | binds | –
